Consider seven molecules from patent publication US20160002357A1 (Pfizer, published 2016).

Where a chain is given by its changes, count along the chain named. Values joined by “and” are separate entries in the source; they are usually repeats but may differ in a detail not shown here. Identical values can stand only once.

Assay [1] concerns the target T1, human P-cadherin expressed on the cell surface (human, UniProt P22223 108-829).
T1 construct: also called SW480-huPcad; CHO-huPcad
The assay can be described thus: cell ELISA, H1650 cells. (ELISA stands for enzyme-linked immunosorbent assay.)

Assay [2] deals with T2, cynomolgus monkey P-cadherin ECD (cynomolgus monkey).
T2 construct: extracellular domain; also called cyno P-cadherin ECD; Cyno P-cadherin
The assay can be described thus: SPR Biacore 3000, antigen immobilised. Here is the method:
(§1) Binding affinity of EK-DART proteins to P-cadherin and CD3 was analyzed by SPR using a BIACORE® 3000 biosensor (GE Healthcare). The antigens huCD3εδ and either human P-cadherin-Fc or human/cynomolgus monkey/murine P-cadherin-ECD were immobilized on the CM-5 sensor chip by amine coupling kit as recommended by the manufacturer. […] All EK-DART proteins in Tables 15 and 16 comprise CD3-2.

The target in another assay is T3, Hu P-cadherin-Fc (human, UniProt P22223 108-654, limits assumed).
T3 construct: also called recombinant human P-cadherin-Fc; human P-cadherin-Fc; not shown: Fc
T3 sequence (P22223 108-654 limits assumed): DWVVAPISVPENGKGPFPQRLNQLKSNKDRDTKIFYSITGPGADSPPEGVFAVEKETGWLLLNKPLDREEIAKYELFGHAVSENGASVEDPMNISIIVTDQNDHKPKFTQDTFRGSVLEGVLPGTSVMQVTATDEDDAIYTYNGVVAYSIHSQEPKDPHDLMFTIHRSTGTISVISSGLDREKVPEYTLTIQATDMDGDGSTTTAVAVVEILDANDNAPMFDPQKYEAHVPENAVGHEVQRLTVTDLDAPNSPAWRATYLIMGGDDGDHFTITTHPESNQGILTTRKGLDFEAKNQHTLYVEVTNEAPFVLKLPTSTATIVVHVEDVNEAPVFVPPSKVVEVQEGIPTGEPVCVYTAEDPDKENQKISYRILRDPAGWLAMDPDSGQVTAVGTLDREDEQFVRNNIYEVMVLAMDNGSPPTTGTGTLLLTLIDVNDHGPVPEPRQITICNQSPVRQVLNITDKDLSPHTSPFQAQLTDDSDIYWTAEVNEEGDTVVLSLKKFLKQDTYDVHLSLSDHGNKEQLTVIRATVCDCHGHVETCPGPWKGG
Nature of the assay: ELISA.

Assay [3] concerns the target T2, cynomolgus monkey P-cadherin ECD. The assay can be described thus: SPR Biacore pH 7.4, average. A general note: SPR reads the build-up and loss of mass on a sensor chip optically.
For assay [4] the target is unchanged. Nature of the assay: SPR Biacore pH 7.4.
Assay [5] shares this target. The assay can be described thus: SPR Biacore. The protocol:
as §1
All EK-DART proteins in Table 17 comprise CD3-2.

Assay [6] has the same target. The assay can be described thus: SPR.
Assay [7] concerns the target T1, human P-cadherin expressed on the cell …. Nature of the assay: cell-based or functional assay.

T1 sequence (P22223 108-829): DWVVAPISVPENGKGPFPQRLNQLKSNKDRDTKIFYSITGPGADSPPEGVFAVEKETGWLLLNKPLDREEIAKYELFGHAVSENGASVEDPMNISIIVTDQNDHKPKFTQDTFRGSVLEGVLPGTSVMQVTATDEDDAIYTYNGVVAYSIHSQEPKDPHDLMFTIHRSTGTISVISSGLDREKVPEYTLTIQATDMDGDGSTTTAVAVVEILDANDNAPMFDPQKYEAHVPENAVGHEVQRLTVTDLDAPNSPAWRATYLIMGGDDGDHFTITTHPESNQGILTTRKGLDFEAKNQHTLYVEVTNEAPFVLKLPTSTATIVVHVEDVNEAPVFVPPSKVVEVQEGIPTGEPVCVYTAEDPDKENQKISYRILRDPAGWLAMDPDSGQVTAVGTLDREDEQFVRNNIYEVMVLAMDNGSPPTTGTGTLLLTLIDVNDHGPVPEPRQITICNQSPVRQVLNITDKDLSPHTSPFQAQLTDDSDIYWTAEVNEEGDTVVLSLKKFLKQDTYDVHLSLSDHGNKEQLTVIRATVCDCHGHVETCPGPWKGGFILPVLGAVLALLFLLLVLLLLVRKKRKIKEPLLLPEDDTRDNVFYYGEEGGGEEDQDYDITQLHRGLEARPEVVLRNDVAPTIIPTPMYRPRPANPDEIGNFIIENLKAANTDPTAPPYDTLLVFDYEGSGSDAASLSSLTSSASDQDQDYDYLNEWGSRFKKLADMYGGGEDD

B1: 20 EK-DART (bispecific antibody)
chain 1: AIQMTQSPSSLSASVGDRVTITCRASQSIGKYLNWYQQIPGKAPKLLIYTASTLQTGVPSRFSGSGSGTDFTLTIVSLQPEDFATYYCQQSFNTPRTFGQGTKVEIKGGGSGGGGEVQLVESGGGLVQPGGSLRLSCAASGFTFNTYAMNWVRQAPGKGLEWVARIRSKYNNYATYYADSVKDRFTISRDDSKNSLYLQMNSLKTEDTAVYYCVRHGNFGNSYVSWFAYWGQGTLVTVSSGGCGGGKVAALKEKVAALKEKVAALKEKVAALKE
chain 2: QAVVTQEPSLTVSPGGTVTLTCRSSTGAVTTSNYANWVQQKPGQAPRGLIGGTNKRAPWTPARFSGSLLGGKAALTITGAQAEDEADYYCALWYSNLWVFGGGTKLTVLGGGGSGGGGEVQLVQSGAEVKKPGASVKVSCKASGYTFTGYYMHWVRQAPGQGLEWMGRINPNSGGTNYAQKFQGRVTMTRDTSISTAYMELSRLRSDDTAVYYCAKGSGSGAFDIWGQGTMVTVSSGGCGGGEVAALEKEVAALEKEVAALEKEVAALEK
notes: also called P-CAD 20 EK-DART (CD3-2)
As a reminder, the EC50 is the concentration needed to bring the measured effect to its halfway point. In general, Kd refers to the concentration at which binding is half-saturated. What is called koff is the first-order rate constant of dissociation. As usually defined, the kon is the rate constant with which the complex forms. B1 had an EC50 in assay [1] of about 115 nM. In assay [2], this molecule had a Kd of 2.03 nM, a koff of 0.00704 s⁻¹ and a kon of 3.46e+06 M⁻¹ s⁻¹. In addition, the midpoint of the response in the assay with Hu P-cadherin-Fc, the EC50, lay at 12.3 nM.

B2: 30 EK-DART (bispecific antibody)
chain 1: DIVMTQSPLSLPVTLGQPASISCRSSQSLVHSDGNTYLHWFQQRPGQSPRRLIYKVSNRDSGVPDRFSGSGSGTDFTLKISRVEAEDVGVYYCMQGTHWPPLFGQGTKVEIKGGGSGGGGEVQLVESGGGLVQPGGSLRLSCAASGFTFNTYAMNWVRQAPGKGLEWVARIRSKYNNYATYYADSVKDRFTISRDDSKNSLYLQMNSLKTEDTAVYYCVRHGNFGNSYVSWFAYWGQGTLVTVSSGGCGGGKVAALKEKVAALKEKVAALKEKVAALKE
chain 2: QAVVTQEPSLTVSPGGTVTLTCRSSTGAVTTSNYANWVQQKPGQAPRGLIGGTNKRAPWTPARFSGSLLGGKAALTITGAQAEDEADYYCALWYSNLWVFGGGTKLTVLGGGGSGGGGEVQLVESGGGVVQPGRSLRLSCAASGFTFSSYGMHWVRQAPGKGLEWVAVISYDGSNKYYADSVKGRFTISRDNSKNTLYLQMNSLRAEDTAVYYCAKSSSDRTFDYWGQGTLVTVSSGGCGGGEVAALEKEVAALEKEVAALEKEVAALEK
notes: also called P-CAD 30 EK-DART (CD3-2)
The molecule B2 showed an EC50 in assay [1] of 142 nM. In assay [2], this molecule yielded a Kd of 1.37 nM, a koff of 0.00648 s⁻¹ and a kon of 4.72e+06 M⁻¹ s⁻¹. For the same molecule, the EC50 with Hu P-cadherin-Fc was 3.68 nM.

B3: 153 MP3 N-terminal DART (bispecific antibody, human IgG1)
chain 1: QSVLTQPPSVSAAPGQKVTISCSGSSSNIGNNYVSWYQQLPGTAPKLLIYDNNKRPSGIPDRFSGSKSGTSATLGITGLQTGDEADYYCGTWDSSLSGVVFGGGTKLTVLGGGGSGGGGEVQLVESGGGLVQPGGSLRLSCAASGFTFSTYAMNWVRQAPGKGLEWVGRIRSKYNNYATYYADSVKGRFTISRDDSKNSLYLQMNSLKTEDTAVYYCVRHGNFGNSYVSWFAYWGQGTLVTVSSGVEPKSCDKTHTCPPCPAPEAAGAPSVFLFPPKPKDTLMISRTPEVTCVVVDVSHEDPEVKFNWYVDGVEVHNAKTKPREEQYNSTYRVVSVLTVLHQDWLNGKEYKCKVSNKALPAPIEKTISKAKGQPREPQVYTLPPSREEMTKNQVSLWCLVKGFYPSDIAVEWESNGQPENNYKTTPPVLDSDGSFFLYSKLTVDKSRWQQGNVFSCSVMHEALHNHYTQKSLSLSPGK
chain 2: QAVVTQEPSLTVSPGGTVTLTCRSSTGAVTTSNYANWVQQKPGQAPRGLIGGTNKRAPWTPARFSGSLLGGKAALTITGAQAEDEADYYCALWYSNLWVFGGGTKLTVLGGGGSGGGGEVQLVQSGAEVKKPGASVKVSCKASGYTFTSYGISWVRQAPGQGLEWMGWISAYNGNTNYAQKLQGRVTMTTDTSTSTAYMELRSLRSDDTAVYYCATIDTANAFGIWGQGTMVTVSSGFNRGEC
chain 3: DKTHTCPPCPAPEAAGAPSVFLFPPKPKDTLMISRTPEVTCVVVDVSHEDPEVKFNWYVDGVEVHNAKTKPREEQYNSTYRVVSVLTVLHQDWLNGKEYKCKVSNKALPAPIEKTISKAKGQPREPQVYTLPPSREEMTKNQVSLSCAVKGFYPSDIAVEWESNGQPENNYKTTPPVLDSDGSFFLVSKLTVDKSRWQQGNVFSCSVMHEALHNRYTQKSLSLSPGK
In general, t½ refers to the time in which the quantity being followed falls by half. In assay [3], B3 showed a Kd of 2.61 nM. Further, in assay [4], the Kd is 2.43 nM and 2.78 nM; the koff was 0.000296 s⁻¹ and 0.000228 s⁻¹; the kon was 122000 M⁻¹ s⁻¹ and 81900 M⁻¹ s⁻¹; the t½ is 36.8 min and 47.8 min.

B4: 35 EK-DART (bispecific antibody)
chain 1: QSVLTQPPSVSAAPGQKVTISCSGSSSNIGNNYVSWYQQLPGTAPKLLIYDNNKRPSGIPDRFSGSKSGTSATLGITGLQTGDEADYYCGTWDSSLSAVVFGGGTKLTVLGGGSGGGGEVQLVESGGGLVQPGGSLRLSCAASGFTFNTYAMNWVRQAPGKGLEWVARIRSKYNNYATYYADSVKDRFTISRDDSKNSLYLQMNSLKTEDTAVYYCVRHGNFGNSYVSWFAYWGQGTLVTVSSGGCGGGKVAALKEKVAALKEKVAALKEKVAALKE
chain 2: QAVVTQEPSLTVSPGGTVTLTCRSSTGAVTTSNYANWVQQKPGQAPRGLIGGTNKRAPWTPARFSGSLLGGKAALTITGAQAEDEADYYCALWYSNLWVFGGGTKLTVLGGGGSGGGGEVQLVQSGAEVKKPGASVKVSCKASGYTFTSYGISWVRQAPGQGLEWMGWISAYNGNTNYAQKLQGRVTMTTDTSTSTAYMELRSLRSDDTAVYYCATIDTASAFDIWGQGTMVTVSSGGCGGGEVAALEKEVAALEKEVAALEKEVAALEK
notes: also called P-CAD 35 EK-DART (CD3-2); parental 35 EK-DART
With B4, the Kd turned out to be 35 nM in assay [5], 42.8 nM in assay [6] and 43.4 nM in assay [2]. The koff in assay [5] worked out at 0.0215 s⁻¹; in assay [2] it was 0.0138 s⁻¹. Besides, the kon in assay [5] is 614000 M⁻¹ s⁻¹; in assay [2] it was 318000 M⁻¹ s⁻¹. In addition, the EC50 in assay [1] is 24.9 nM; with Hu P-cadherin-Fc, 1.92 nM. The “T cell Cytotoxicity” value in assay [7] is 0.33 nM.

B5: 153 EK-DART (bispecific antibody)
chain 1: B4 chain 1 with A98G
chain 2: B4 chain 2 with S221N, D224G
In the case of B5, the affinity in assay [3], expressed as Kd, was 0.417 nM. Moreover, in assay [5], the Kd was 0.232 nM, the koff is 0.000172 s⁻¹ and the association rate constant (kon) worked out at 732000 M⁻¹ s⁻¹. Further, in assay [4], the Kd is 0.403 nM and 0.43 nM; the off-rate (koff) was 0.000211 s⁻¹ and 0.000222 s⁻¹; the kon is 524000 M⁻¹ s⁻¹ and 517000 M⁻¹ s⁻¹; the t½ is 51.6 min and 49 min.

B6: 34 EK-DART (bispecific antibody)
chain 1: B4 chain 1 with L4V, V99W
chain 2: B4 chain 2
notes: also called P-CAD 34 EK-DART (CD3-2)
B6 had an EC50 in assay [1] of 68 nM. Moreover, in assay [2], the Kd is 129 nM, the koff came out at 0.0833 s⁻¹ and the kon was 705000 M⁻¹ s⁻¹. Moreover, in the assay with Hu P-cadherin-Fc, the EC50 came out at 2.85 nM.

B7: 33 EK-DART (bispecific antibody)
chain 1: B4 chain 1 with V99Y, G103T, L107V
chain 2: B4 chain 2 with E119Q, V120M, T216L, D218G, T219S, A220G, S221V
notes: CD3 VL x P-CAD VH-E-coil); also called P-CAD 33 EK-DART (CD3-2)
Regarding B7, in assay [1], it took 60.1 nM to reach a half-maximal effect (EC50). For the same molecule, in assay [2], the Kd is 46.4 nM, the koff was 0.0578 s⁻¹ and the on-rate (kon) is 1.15e+06 M⁻¹ s⁻¹. Moreover, the response with Hu P-cadherin-Fc was half-maximal at 1.8 nM (EC50).
